Results as given in the supplement of paper PMC10567573.

B1: EPB41L3 (parent)
chain: SMQCKVILLDGSEYTCDVEKRSRG
B2: GNAI1 (parent)
chain: WIHCFEGVTAIIFCVALSDYDLVL

Variants of: B1
Assay: protein stability index of a GFP-peptide fusion (GPS, HEK-293T) (PSI 1-6); higher = more stable
Settings: c terminus: a fixed tail appended
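Note: lentivirally expressed fusions sorted by FACS into six bins by GFP to DsRed ratio, PSI derived from sequencing read proportions per bin multiplied by bin number.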

Protein stability index: each site, then its substitutions
G24: D 2.37; E 3; F 2.47; H 2.47; I 1.98; K 2.99; L 2.47; M 2.51; N 3.27; P 2.47; Q 2.17; R 2.84; S 3.48; T 3.25; V 2.83; W 2.88; Y 2.25

Variants of: B2
Assay: as above
Settings: c terminus: a fixed tail appended

Protein stability index: each site, then its substitutions
W1: A 3.11; D 3.44; E 2.82; F 2.29; G 2.14; H 3.09; I 4.21; K 3.4; L 3.13; M 2.91; N 2.99; P 3.51; Q 1.72; S 1.5; T 2.32; V 3.35; Y 3.22
I2: A 2.9; D 2.21; E 3.25; F 1.63; G 1.7; H 2.9; L 1.83; Q 3.22; R 2.34; S 2.82; T 2.12; Y 3.56
H3: C 1.69; D 3.95; E 3.35; F 1.75; I 2.8; K 3.35; N 3.58; T 3.21; V 2.98; Y 3.39
C4: E 2.83; F 2.8; G 3.37; H 2.22; K 3.1; M 2.25; N 3.76; P 2.69; Q 3.17; R 2.97; S 3.29; T 2.39; W 4.22; Y 2.43
F5: A 3.47; C 1.78; D 2.6; H 3.07; I 3.65; K 2.11; M 2.91; N 2.79; P 3.42; Q 2.79; S 2.75; T 2.87
E6: A 2.75; C 1.95; D 2.74; F 1.87; G 2.32; I 3.12; K 1.26; L 4.47; M 2.6; N 3.63; Q 1.76; R 3.24; T 2.2; V 2.97; Y 2.48
G7: C 4.35; D 3.39; E 3.19; H 2.92; I 4.42; L 2.54; M 1.99; P 5.18; Q 2.28; R 2.02; S 2.44; T 2.51; Y 2.62
V8: A 2.56; C 3.33; D 2.79; F 3.11; G 1.82; I 3.14; K 1.95; L 2.78; M 2.09; N 2.3; P 2.99; Q 3.32; R 3.63; S 1.65; Y 2.2
T9: A 2.01; C 2.57; D 3.05; F 3.82; G 2.84; H 3.23; I 4.15; K 2.17; Q 2.66; R 2.51; S 2; W 3.23; Y 2.83
A10: C 4.03; D 1.51; F 2.31; G 2.08; I 1.8; K 2.31; L 4.17; N 3.19; Q 2.09; S 1.82; T 2.48; W 2.06; Y 2.76
I11: A 1.48; C 3.28; D 3.47; E 2.67; F 3.26; H 3.5; K 3.52; M 3.01; N 3.83; P 2.79; Q 1.86; S 4.32; T 1.61; V 3.49; Y 3.17
I12: E 4.44; F 3.41; H 1.71; K 1.93; L 3.2; N 2.9; P 4.32; Q 1; R 5.41; S 2.84; T 1.79; W 2.95; Y 3.14
F13: C 2.64; E 1.84; G 2.34; I 4.07; K 4.12; N 2.17; P 2.43; Q 3.46; S 2.34; T 2.07; V 2.83
C14: A 1.32; D 4.12; F 3.23; G 2.52; H 2.66; I 3.89; L 1.8; M 1.93; N 2.56; P 2.46; Q 2.43; R 4.07; S 3.26; T 4.02; Y 3.37
V15: C 3.06; D 2.61; F 3.93; H 3.01; I 3.06; K 3.22; M 1.77; N 3.17; P 3.22; Q 3.42; T 2.03; Y 3.25
A16: D 2.96; G 3.14; H 1.78; K 4.07; L 3.16; M 2.41; N 2.25; Q 2.56; S 3.92; T 3.18; V 1.64; Y 4.61
L17: A 3.93; D 3.5; E 3.42; F 4.72; H 2.71; K 2.55; N 2.67; P 3.56; Q 3.55; R 2.51; T 2.04; V 3.19; W 3.09; Y 2.83
S18: A 1.86; D 2.67; E 4.41; F 1.9; I 4.92; L 4.7; N 2.34; P 2.3; Q 4.04; T 2.95; V 2.2; W 2.62
D19: A 2.02; C 3.67; E 3.67; F 3.69; G 3.1; H 2.87; I 1.44; K 3.29; L 2.58; M 1.58; P 3.43; Q 2.96; S 2.77; T 4.11; V 3.39; Y 3.06
Y20: A 3; C 2.61; D 3.02; E 2.71; F 3.7; G 2.45; I 3.91; K 2.02; L 3.28; M 1.56; N 3.6; Q 4.16; R 2.75; S 2.35; T 4.04; V 2.86
D21: A 3.49; C 3.01; E 4.04; F 4.12; G 2.37; I 3.09; K 3.74; L 2.81; M 2.88; N 3.81; R 2.59; S 2.76; T 4.09; W 2.27; Y 2.41
L22: A 1.82; C 1.87; D 3.04; F 2.5; H 1.34; K 3.61; M 2.77; N 1.85; P 1.98; Q 3.71; S 3.61; V 4.39; W 3.57; Y 2.52
V23: C 1.55; E 2.71; F 2.29; H 4; I 2.7; K 3.57; N 3.29; P 2.28; R 2.89; S 2.21; T 3.6; Y 3.15
L24: A 1.85; D 2.92; E 1.42; F 2.34; G 3.06; H 3.37
